Consider four molecules from US20130157929A1, “GLUCAGON ANALOGUES” (ZEALAND PHARMA A/S, published 2013).

For experiment [1], the target named is human glucagon receptor (glucagon-R) (human, UniProt P47871). The experiment is described as follows: cell-based or functional assay.
The target of experiment [2] is human glucagon-like peptide 1 receptor (GLP-1R) (human, UniProt P43220). Description: cell-based or functional assay.

Starred links: 1 amine or outer side, 2 acyl side, 3 side chain; linkers in the order of their positions; H or OH if unused. Non-standard residues stand in square brackets, D forms with d. Groups on a side chain read outwards from the residue. *: point of attachment. γGlu = O=C(O)[C@H](CCC(=O)[*:2])N[*:1]; Palmitoyl = CCCCCCCCCCCCCCCC(=O)*; hSer = N[C@@H](CCO)C(=O)O; Aib = CC(C)(N)C(=O)O

B1: Compound 28 (peptide)
peptide: H-H[Aib][3‑(1-pyrazolyl)alanyl]GTFTSDYSKYLDSK([γGlu-Palmitoyl])AAHDFVEWLLSA-NH2
Consider B1, for which the “EC50 (nM) GluR, cAMP formation” value in experiment [1] came to 4.85 nM. Further, the “EC50 (nM) GLP-1R, cAMP formation” value in experiment [2] was 0.11 nM.

B2: Compound 31 (peptide)
peptide: H-H[Aib]HGTFTSDYSKYLESK([γGlu-Palmitoyl])AAEEFVEWLLEA-NH2
SMILES: CCCCCCCCCCCCCCCC(=O)N[C@@H](CCC(=O)NCCCC[C@H](NC(=O)[C@H](CO)NC(=O)[C@H](CCC(=O)O)NC(=O)[C@H](CC(C)C)NC(=O)[C@H](Cc1ccc(O)cc1)NC(=O)[C@H](CCCCN)NC(=O)[C@H](CO)NC(=O)[C@H](Cc1ccc(O)cc1)NC(=O)[C@H](CC(=O)O)NC(=O)[C@H](CO)NC(=O)[C@@H](NC(=O)[C@H](Cc1ccccc1)NC(=O)[C@@H](NC(=O)CNC(=O)[C@H](Cc1c[nH]cn1)NC(=O)C(C)(C)NC(=O)[C@@H](N)Cc1c[nH]cn1)[C@@H](C)O)[C@@H](C)O)C(=O)N[C@@H](C)C(=O)N[C@@H](C)C(=O)N[C@@H](CCC(=O)O)C(=O)N[C@@H](CCC(=O)O)C(=O)N[C@@H](Cc1ccccc1)C(=O)N[C@H](C(=O)N[C@@H](CCC(=O)O)C(=O)N[C@@H](Cc1c[nH]c2ccccc12)C(=O)N[C@@H](CC(C)C)C(=O)N[C@@H](CC(C)C)C(=O)N[C@@H](CCC(=O)O)C(=O)N[C@@H](C)C(N)=O)C(C)C)C(=O)O
For the molecule B2, in experiment [1], the “EC50 (nM) GluR, cAMP formation” value was 0.15 nM. In addition, the “EC50 (nM) GLP-1R, cAMP formation” value in experiment [2] worked out at 0.09 nM.

B3: Compound 27 (peptide)
peptide: H-H[Aib][3‑(3-thienyl)alanyl]GTFTSDYSKYLDSK([γGlu-Palmitoyl])AAHDFVEWLLSA-NH2
Turning to B3, in experiment [1], the “EC50 (nM) GluR, cAMP formation” value worked out at 1.58 nM. In experiment [2], the “EC50 (nM) GLP-1R, cAMP formation” value was 0.27 nM.

B4: Compound 29 (peptide)
peptide: H-H[Aib][hSer]GTFTSDYSKYLDSK([γGlu-Palmitoyl])AAHDFVEWLLSA-NH2
In the case of B4, the “EC50 (nM) GluR, cAMP formation” value in experiment [1] was 0.79 nM. In addition, the “EC50 (nM) GLP-1R, cAMP formation” value in experiment [2] came out at 0.05 nM.
